Positions count from the first letter of the chain named. Names may count otherwise. “And” between values parts separate entries of the source, which are not always exact repeats. Identical values can stand only once. Like-named read-outs stand apart in the source and are kept apart here.
B1: Redq/Q159T: aporedquorin (tdTomato-aequorin fusion) mutant Q159T (SEQ ID NO:22) (protein)
chain: MVSKGEEVIKEFMRFKVRMEGSMNGHEFEIEGEGEGRPYEGTQTAKLKVTKGGPLPFAWDILSPQFMYGSKAYVKHPADIPDYKKLSFPEGFKWERVMNFEDGGLVTVTQDSSLQDGTLIYKVKMRGTNFPPDGPVMQKKTMGWEASTERLYPRDGVLKGEIHQALKLKDGGHYLVEFKTIYMAKKPVQLPGYYYVDTKLDITSHNEDYTIVEQYERSEGRHHLFLGHGTGSTGSGSSGTASSEDNNMAVIKEFMRFKVRMEGSMNGHEFEIEGEGEGRPYEGTQTAKLKVTKGGPLPFAWDILSPQFMYGSKAYVKHPADIPDYKKLSFPEGFKWERVMNFEDGGLVTVTQDSSLQDGTLIYKVKMRGTNFPPDGPVMQKKTMGWEASTERLYPRDGVLKGEIHQALKLKDGGHYLVEFKTIYMAKKPVQLPGYYYVDTKLDITSHNEDYTIVEQYERSEGRHHLFLSGFDNPRWIGRHKHMFNFLDVNHNGKISLDEMVYKASDIVINNLGATPEQAKRHKDAVEAFFGGAGMKYGVETDWPAYIEGWKKLATDELEKYAKNEPTLIRIWGDALFDIVDKDQNGAITLDEWKAYTKAAGIIQSSEDCEETFRVCDIDESGTLDVDEMTRQHLGFWYTMDPACEKLYGGAVP
modifications: mutant aequorin
B2: Redq/Q159D: aporedquorin (tdTomato-aequorin fusion) mutant Q159D (SEQ ID NO:21) (protein)
chain: B1 chain with T623D
modifications: mutant aequorin

Columns and labels:
[1] = Ca2+ sensitivity curves of reconstituted photoproteins (L/Lmax vs free Ca2+); format: biochemical; conditions: for EC50: redquorin series, CitA, GA, read-out: Calcium sensitivity, EC50; for Relative intensity at pCa 6.5 / Relative intensity at pCa 7.2: relative to Redq
Procedure, shortened: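 Purified apoaequorin/redquorin mutants reconstituted overnight at 4 °C with 5 μM CLZ-f or native CLZ, then moved to zero-Ca2+ MOPS/KCl/EGTA buffer, pH 7.2. Luminescence in EGTA-buffered free-Ca2+ solutions, then saturating CaCl2 to obtain Lmax; EC50 from variable-slope sigmoidal fit of L/Lmax.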

endogenous P2Y2 receptor = assay: Assay of activation of endogenous P2Y2 receptor by ATP in CHO cells stably expressing photoproteins; format: cell-based; conditions: CHO cells stably expressing the sensor; for EC50: ATP dose-response, read-out: EC50 (half-maximal effective concentration of ATP for P2Y2 activation)
Method: Stably prepared CHO cells were loaded with 5 μM coelenterazine in 130 mM NaCl, 5 mM KCl, 1 mM MgCl2, 2 mM CaCl2, 5 mM NaHCO3, 20 mM N-(2-hydroxyethyl) piperazine-N′-ethanesulfonic acid (HEPES), pH 7.4 for 4 h at ambient temperature.
To produce stable CHO cell lines, the cells transfected with GA and Redquorin variant plasmids were seeded on six-well plates and grown in the same medium with addition of Geneticin sulfate (G418) (Gibco, UK) at 1 mg/ml under the same conditions with replacement of the medium by fresh medium every 2 days. After 7-10 days of selection, CHO cells were transferred into a medium without antibiotic. To select clones with the highest bioluminescence activity, one run of limiting dilution was performed. CHO cells after G418 selection were seeded on 96-well plates (approximately 0.5 cells per well) and grown in DMEM/F12 medium supplemented with 10% fetal calf serum at 37° C., 5% CO2 for up to 80-90% confluence. Before the bioluminescence measurements, the plates with monoclones of CHO cells expressing the corresponding photoprotein were duplicated and grown for up to 90-100% confluence. Then, the medium was removed and cells were loaded with coelenterazine, and bioluminescence in each well was measured according to the procedure described earlier. As a result, the CHO cell clones with the highest bioluminescence activity were selected.
Assay of Activation of Endogenous P2Y2 Receptor in CHO Cells
The CHO cell lines stably expressing each photoprotein were used in assay of activation of endogenous P2Y2 receptor by ATP. The day before the measurements, the corresponding cells were seeded on 96-well plates with DMEM/F12 medium supplemented with 10% fetal calf serum and were grown at 37° C. with 5% CO2 for up to 90-100% confluence. Then, the medium was replaced by 100 μl of coelenterazine solution per well (5 μM coelenterazine in 130 mM NaCl, 5 mM KCl, 1 mM MgCl2, 2 mM CaCl2, 5 mM NaHCO3, 20 mM HEPES, pH7.4) and the cells were incubated at 23° C. for 4 h. Emission from photoproteins in the cells was measured using a Mithras LB 940 plate luminometer. The ATP was injected at a given concentration to trigger an intracellular Ca^2+ response in the cells and the measurement started immediately. The bioluminescence was integrated over a time interval of 0.05 s for 30 s.

| Molecule | EC50 ([1]; CLZ-f) [nM] | Relative intensity at pCa 6.5 ([1]; CLZ-f) | Relative intensity at pCa 7.2 ([1]; CLZ-f) | Relative intensity at pCa 6.5 ([1]; CLZ-f, listed as Redq/QT) | EC50 ([1]; CLZ-native) [nM] | Relative intensity at pCa 6.5 ([1]; CLZ-native) | Relative intensity at pCa 7.2 ([1]; CLZ-native) | Relative intensity at pCa 6.5 ([1]; CLZ-native, listed as Redq/QT) | [ATP] DL (detection limit) (endogenous P2Y2 receptor) | EC50 (endogenous P2Y2 receptor) [nM] |
| --- | --- | --- | --- | --- | --- | --- | --- | --- | --- | --- |
| B1 | 296 ± 13 | 11.0 | 2.8 | 11 | 478 ± 39 | 13.0 | 7.1 | 13 | 398 nM and 398 ± 17 nM | 1700 |
| B2 | 290 ± 18 | 23.9 | 14.9 | – | 680 ± 33 | 9.1 | 13.2 | – | 417 ± 16 nM | 2300 ± 200 |

From patent US20180319855A1, “GENETICALLY MUTATED AEQUORIN-BASED BIOSENSORS WITH EXTRA SENSITIVITY TO CALCIUM AND IMPROVED BIOLUMINESCENCE INTENSITY” (CENTRE NATIONAL DE LA RECHERCHE SCIENTIFIQUE (CNRS), priority 2015, published 2018)
